According to PMC7337490, “Molecular basis of MKLP2-dependent Aurora B transport from chromatin to the anaphase central spindle”:

Key:
Conditions in all cases: protein: recombinant;recombinant;recombinant; tags: N-terminal His (tag cleavage stated for complex);;His6-GST, cleaved by HRV 3C; copies: 1;1;1; label: Alexa 488 on forward strand; blunt
[1] = biological target: survivin;borealin 10-109;INCENP 1-58 (CPI58) (human;human;human, UniProt O15392;Q53HL2;Q9NQS7 1-142;10-109;1-58, ||); assay: MST; up to 200 uM; 100 mM NaCl, 20 mM Tris-HCl pH 7.4, 1 mM DTT, 2 h on ice; MST 0.04 uM duplex, 0.1-200 uM protein; EMSA 0.15 pmol plasmid in 20 ul, 0.8% agarose
[2] = biological target: survivin;borealin 10-109;INCENP 1-80 RRKKRR (CPI80RRKKRR) (human;human;human, UniProt O15392;Q53HL2;Q9NQS7 1-142;10-109;1-80, ||R65A;R66A;K67A;K68A;R69A;R70A); assay: as above
[3] = biological target: survivin;borealin 10-109;INCENP 1-80 (CPI80) (human;human;human, UniProt O15392;Q53HL2;Q9NQS7 1-142;10-109;1-80, ||); assay: MST; 100 mM NaCl, 20 mM Tris-HCl pH 7.4, 1 mM DTT, 2 h on ice; MST 0.04 uM duplex, 0.1-200 uM protein; EMSA 0.15 pmol plasmid in 20 ul, 0.8% agarose
[4] = biological target: survivin;borealin 10-109;INCENP 1-80 T59E (CPI80T59E) (human;human;human, UniProt O15392;Q53HL2;Q9NQS7 1-142;10-109;1-80, ||T59E); assay: MST; Kd not calculable per legend; 100 mM NaCl, 20 mM Tris-HCl pH 7.4, 1 mM DTT, 2 h on ice; MST 0.04 uM duplex, 0.1-200 uM protein; EMSA 0.15 pmol plasmid in 20 ul, 0.8% agarose
Sequence of survivin;borealin 10-109;INCENP 1-80 T59E (CPI80T59E) (O15392 whole entry, chain 1 of 3): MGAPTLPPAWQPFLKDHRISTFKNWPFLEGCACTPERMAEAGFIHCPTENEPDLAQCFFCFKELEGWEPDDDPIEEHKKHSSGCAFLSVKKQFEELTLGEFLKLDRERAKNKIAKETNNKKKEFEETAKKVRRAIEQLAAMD
Sequence of survivin;borealin 10-109;INCENP 1-80 T59E (CPI80T59E) (Q53HL2 10-109, chain 2 of 3): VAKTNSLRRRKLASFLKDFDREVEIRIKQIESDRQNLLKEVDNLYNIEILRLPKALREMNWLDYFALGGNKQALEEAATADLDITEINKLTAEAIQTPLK
Sequence of survivin;borealin 10-109;INCENP 1-80 T59E (CPI80T59E) (Q9NQS7 1-80 T59E, chain 3 of 3): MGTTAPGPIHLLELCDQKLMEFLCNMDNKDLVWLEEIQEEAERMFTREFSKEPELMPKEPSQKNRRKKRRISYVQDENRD

Sequence of survivin;borealin 10-109;INCENP 1-80 (CPI80) (O15392 whole entry, chain 1 of 3): as the sequence (O15392 whole entry, chain 1 of 3) above
Sequence of survivin;borealin 10-109;INCENP 1-80 (CPI80) (Q53HL2 10-109, chain 2 of 3): as the sequence (Q53HL2 10-109, chain 2 of 3) above
Sequence of survivin;borealin 10-109;INCENP 1-80 (CPI80) (Q9NQS7 1-80, chain 3 of 3): as the sequence (Q9NQS7 1-80 T59E, chain 3 of 3) above, with E59T counted along it
Sequence of survivin;borealin 10-109;INCENP 1-58 (CPI58) (O15392 whole entry, chain 1 of 3): as the sequence (O15392 whole entry, chain 1 of 3) above
Sequence of survivin;borealin 10-109;INCENP 1-58 (CPI58) (Q53HL2 10-109, chain 2 of 3): as the sequence (Q53HL2 10-109, chain 2 of 3) above
Sequence of survivin;borealin 10-109;INCENP 1-58 (CPI58) (Q9NQS7 1-58, chain 3 of 3): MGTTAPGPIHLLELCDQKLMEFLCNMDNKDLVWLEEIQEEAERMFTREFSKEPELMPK
Sequence of survivin;borealin 10-109;INCENP 1-80 RRKKRR (CPI80RRKKRR) (O15392 whole entry, chain 1 of 3): as the sequence (O15392 whole entry, chain 1 of 3) above
Sequence of survivin;borealin 10-109;INCENP 1-80 RRKKRR (CPI80RRKKRR) (Q53HL2 10-109, stated change not applied, chain 2 of 3): as the sequence (Q53HL2 10-109, chain 2 of 3) above
Sequence of survivin;borealin 10-109;INCENP 1-80 RRKKRR (CPI80RRKKRR) (Q9NQS7 1-80 R65A/R66A/K67A/K68A/R69A/R70A, chain 3 of 3): as the sequence (Q9NQS7 1-80 T59E, chain 3 of 3) above, with E59T, R65A, R66A, K67A, K68A, R69A, R70A counted along it

| Binder | binding result [1] | binding result [2] | Kd [3] | binding signal [4] |
| --- | --- | --- | --- | --- |
| centromeric alpha-satellite consensus 40 bp (dsDNA) DNA 1: ATTCAACTCACAGAGTTGAACCTTCCTTTTCATAGAGCAG DNA 2: CTGCTCTATGAAAAGGAAGGTTCAACTCTGTGAGTTGAAT | no binding | no binding | 23.6 ± 1.6 µM | ~2 fold lower affinity than CPI80 |
| non-alpha-satellite 40 bp (dsDNA) DNA 1: ATTCCATGGCACCGTCAAGGCTGAGAACGGGAAGCTTGTC DNA 2: GACAAGCTTCCCGTTCTCAGCCTTGACGGTGCCATGGAAT | no binding | no binding | 29.7 ± 1.6 µM | ~2 fold lower affinity than CPI80 |
